The assay has as its target RBD-His (近岸生物货号:DRA42) (SARS-CoV-2) (UniProt P0DTC2).

Consider 1 substance from CN114057887A.

“hACE2-Fc融合蛋白 (人ACE2胞外区(ECD)与人IgG1的Fc片段的融合蛋白) (Fc fusion)” yielded a 亲和力 of 0.54 nM.
